± gives the standard deviation of the averaged measurements.
B1: library; a variant is named by its letters at N, in order (parent)
chain: GCUGUCACCGGUGCUUGGUACGUUAUAUUCAGCCGGUCUGAUGAGUCUNNNNNNAGACGAAACAGC

Legend:
(6R,S)-folinic acid [1] = variants of: B1; experiment: FACS-Seq fitted mean relative fluorescence mCherry/BFP without ligand (log10 relative fluorescence); HEK293T overexpressing SLC46A1; higher = higher reporter protein expression; conditions: without (6R,S)-folinic acid; ligand present: no
Procedure, shortened: (§1)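 HEK293T libraries were made by lentiviral transduction with a ribozyme-switch mCherry reporter and an EF1α-BFP marker, enriched, and incubated with or without ligand for 48 h. Cells were sorted into 6 mCherry/BFP bins, and each bin's genomic DNA was PCR-amplified, barcoded and run on MiSeq. Fluorescence was derived by normal fitting of the bin counts. The fitted log10(mCherry/BFP) mean was scaled to five spiked-in control ribozymes.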

(6R,S)-folinic acid [2] = variants of: B1; experiment: normalized RNA/DNA level without ligand (relative to sTRSVctl = 100) (log10 (% of sTRSVctl)); HEK293T overexpressing SLC46A1; higher = less ribozyme self-cleavage, higher mRNA level; conditions: without (6R,S)-folinic acid; ligand present: no
Procedure, shortened: (§2)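 Library plasmids carrying ribozyme switches linked to mCherry, or to eGFP in some ligand experiments, were transfected into HEK293T at 4 µg per 6-well well, with any ligand added 1 h earlier. Seventy-two hours on, total RNA was extracted with EDTA and reverse-transcribed, amplified, barcoded and sequenced. RNA level was RNA over DNA reads normalized to a spiked-in non-cleaving sequence or to the top sequences, then scaled and log-transformed. The top set was 25 sequences, the transform was ×100 and log10, and sequences needed ≥100 DNA reads.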

(6R,S)-folinic acid [3] = variants of: B1; experiment: FACS-Seq fitted mean relative fluorescence mCherry/BFP with ligand (log10 relative fluorescence); HEK293T overexpressing SLC46A1; ligand concentration (+) FACS-Seq: 6 mM; higher = higher reporter protein expression; conditions: with (6R,S)-folinic acid; ligand present: yes
Procedure, shortened: as §1

(6R,S)-folinic acid [4] = variants of: B1; experiment: normalized RNA/DNA level with ligand (relative to sTRSVctl = 100) (log10 (% of sTRSVctl)); HEK293T overexpressing SLC46A1; ligand concentration (+) RNA-Seq: 6 mM; higher = less ribozyme self-cleavage, higher mRNA level; conditions: with (6R,S)-folinic acid; ligand present: yes
Procedure, shortened: as §2

Variant | FACS-Seq fitted mean (log10) ((6R,S)-folinic acid [1]) | normalized RNA/DNA level without ligand (log10) ((6R,S)-folinic acid [2]) | FACS-Seq fitted mean (log10) ((6R,S)-folinic acid [3]) | normalized RNA/DNA level with ligand (log10) ((6R,S)-folinic acid [4])
UUAUUU | 0.415 ± 0.024 | 1.982 ± 0.0056 | 0.569 ± 0.26 | 2 ± 0.022
UUAUUG | 0.469 ± 0.069 | 1.82 ± 0.035 | 0.551 ± 0.16 | 1.97 ± 0.038
CUAUAG | 0.0808 ± 0.1 | 1.915 ± 0.017 | 0.35 ± 0.15 | 2 ± 0.029
AUAUGG | 0.12 ± 0.066 | 1.867 ± 0.0088 | 0.307 ± 0.19 | 2 ± 0.034
AUAUGU | 0.367 ± 0.12 | 1.9129 ± 0.00064 | 0.417 ± 0.46 | 2.0205 ± 0.0011
AUAUGA | 0.209 ± 0.013 | 1.976 ± 0.004 | 0.342 ± 0.096 | 2.01 ± 0.034
AUAAAU | 0.45 ± 0.08 | 1.951 ± 0.017 | 0.359 ± 0.082 | 2.028 ± 0.007
CUAUGU | 0.286 ± 0.071 | 2.01 ± 0.023 | 0.152 ± 0.23 | 2.023 ± 0.014
GUAAGG | 0.183 ± 0.078 | 1.946 ± 0.015 | 0.381 ± 0.047 | 2.025 ± 0.015
GUAAGC | 0.239 ± 0.059 | 1.896 ± 0.0061 | 0.33 ± 0.072 | 2.01 ± 0.013
AUAUCC | 0.455 ± 0.027 | 2.0352 ± 0.00073 | 0.839 ± 0.019 | 2.03 ± 0.039
UUCUGG | 0.429 ± 0.029 | 1.887 ± 0.0036 | 0.696 ± 0.12 | 2.03 ± 0.037
UUCUGC | 0.411 ± 0.14 | 2.049 ± 0.02 | 0.336 ± 0.038 | 2.04 ± 0.052
GUAGCU | 0.643 ± 0.11 | 2.009 ± 0.01 | 0.287 ± 0.14 | 1.998 ± 0.0026
AUAGGC | 0.336 ± 0.054 | 2.013 ± 0.012 | 0.59 ± 0.1 | 2.047 ± 0.016
AUAGGG | -0.255 ± 0.066 | 1.599 ± 0.0044 | 0.286 ± 0.019 | 1.92 ± 0.025
AUAGGU | 0.477 ± 0.19 | 1.87 ± 0.023 | 0.695 ± 0.3 | 2.01 ± 0.047
AUCAGU | -0.132 ± 0.056 | 1.97 ± 0.021 | -0.238 ± 0.53 | 1.996 ± 0.017
AUAGAU | 0.365 ± 0.1 | 1.925 ± 0.011 | 0.406 ± 0.1 | 2 ± 0.054
AUAGAC | 0.4594 ± 0.0035 | 1.968 ± 0.0041 | 0.536 ± 0.13 | 1.98 ± 0.017
AUAGAG | 0.0276 ± 0.0023 | 1.52 ± 0.0028 | 0.431 ± 0.14 | 1.89 ± 0.034
AUAUUC | -0.738 ± 0.81 | 2.035 ± 0.019 | -1.5 ± 0.9 | 2.031 ± 0.01
AUAUUG | 0.176 ± 0.067 | 1.896 ± 0.0041 | 0.136 ± 0.13 | 1.97 ± 0.011
GUAUAG | 0.256 ± 0.031 | 1.94 ± 0.0061 | 0.546 ± 0.096 | 2.01 ± 0.048

Variant | FACS-Seq fitted mean (log10) ((6R,S)-folinic acid [1]) | normalized RNA/DNA level without ligand (log10) ((6R,S)-folinic acid [2]) | FACS-Seq fitted mean (log10) ((6R,S)-folinic acid [3]) | normalized RNA/DNA level with ligand (log10) ((6R,S)-folinic acid [4])
AUAGUG | 0.15 ± 0.12 | 1.59 ± 0.023 | 0.795 ± 0.071 | 1.93 ± 0.024
AUAGUA | 0.293 ± 0.042 | 1.93 ± 0.027 | 0.273 ± 0.21 | 1.97 ± 0.019
CUAAGU | 0.502 ± 0.033 | 2 ± 0.022 | 0.535 ± 0.079 | 1.995 ± 0.0037
UUAUGA | 0.0124 ± 0.043 | 1.9284 ± 0.0007 | -0.0229 ± 0.25 | 2.01 ± 0.027
UUAUGU | 0.389 ± 0.12 | 1.919 ± 0.0091 | 0.413 ± 0.13 | 1.987 ± 0.019
AUACCA | -0.158 ± 0.032 | 2.036 ± 0.01 | -0.268 ± 0.23 | 2.01 ± 0.043
UUAGAA | 0.323 ± 0.038 | 1.913 ± 0.0022 | 0.278 ± 0.054 | 1.98 ± 0.038
UUAGAG | 0.029 ± 0.12 | 1.7074 ± 0.0017 | 0.476 ± 0.11 | 1.95 ± 0.045
CUAGAU | 0.368 ± 0.079 | 1.957 ± 0.0032 | 0.387 ± 0.061 | 2 ± 0.028
GUAUCA | 0.376 ± 0.03 | 2.045 ± 0.01 | 0.586 ± 0.01 | 2.04 ± 0.03
AUACUC | 0.248 ± 0.028 | 2.049 ± 0.0056 | 0.188 ± 0.18 | 2.03 ± 0.037
AUAAUA | 0.469 ± 0.017 | 1.982 ± 0.0023 | 0.369 ± 0.62 | 1.992 ± 0.015
AUAUAU | 0.272 ± 0.026 | 1.947 ± 0.011 | 0.459 ± 0.073 | 1.99 ± 0.02
AUAUAC | 0.205 ± 0.083 | 1.994 ± 0.015 | 0.279 ± 0.065 | 2 ± 0.041
AUAUAG | 0.309 ± 0.028 | 1.91 ± 0.021 | 0.295 ± 0.25 | 2 ± 0.022
UUCCGA | -0.0446 ± 0.086 | 1.997 ± 0.002 | -0.101 ± 0.13 | 1.999 ± 0.018
AUACGG | 0.263 ± 0.033 | 1.919 ± 0.0086 | 0.367 ± 0.16 | 1.98 ± 0.02
UUCUAG | 0.502 ± 0.03 | 1.879 ± 0.0029 | 0.872 ± 0.074 | 1.99 ± 0.044
UUCUAA | 0.64 ± 0.015 | 2.014 ± 0.011 | 0.66 ± 0.067 | 2.01 ± 0.026
UUCCUG | 0.284 ± 0.092 | 1.96 ± 0.027 | 0.493 ± 0.079 | 2.03 ± 0.024
GUCGCC | 0.306 ± 0.12 | 2.015 ± 0.012 | 0.25 ± 0.17 | 2.02 ± 0.052
GUCGCA | 0.512 ± 0.053 | 2.03 ± 0.021 | 0.745 ± 0.29 | 2.01 ± 0.041
GUCCCC | -0.921 ± 0.05 | 2.022 ± 0.014 | -1.94 ± 0.26 | 1.995 ± 0.0047
UUAGCA | -0.108 ± 0.12 | 1.9803 ± 0.0011 | -0.232 ± 0.1 | 2.0126 ± 0.00039

Variant | FACS-Seq fitted mean (log10) ((6R,S)-folinic acid [1]) | normalized RNA/DNA level without ligand (log10) ((6R,S)-folinic acid [2]) | FACS-Seq fitted mean (log10) ((6R,S)-folinic acid [3]) | normalized RNA/DNA level with ligand (log10) ((6R,S)-folinic acid [4])
AUACAA | 0.428 ± 0.07 | 1.974 ± 0.0047 | 0.215 ± 0.014 | 1.99 ± 0.035
AUACAG | 0.453 ± 0.1 | 1.9374 ± 0.0012 | 0.394 ± 0.44 | 2 ± 0.028
AUACAU | 0.534 ± 0.18 | 1.96 ± 0.022 | 0.452 ± 0.056 | 2.017 ± 0.02
GUCAUG | 0.406 ± 0.047 | 2.004 ± 0.01 | 0.165 ± 0.087 | 2.03 ± 0.027
GUAUUU | 0.142 ± 0.24 | 2 ± 0.022 | 0.173 ± 0.0069 | 2.01 ± 0.033
AUCGGA | 0.397 ± 0.17 | 1.99 ± 0.0013 | 0.345 ± 0.48 | 2 ± 0.039
UUCGAG | 0.119 ± 0.084 | 1.77 ± 0.033 | 0.699 ± 0.054 | 1.97 ± 0.055
AUCUGG | 0.349 ± 0.012 | 1.92 ± 0.023 | 0.27 ± 0.019 | 2.02 ± 0.042
AUCUCG | 0.399 ± 0.02 | 1.976 ± 0.012 | 0.435 ± 0.35 | 2.04 ± 0.035
GUAUGC | 0.271 ± 0.067 | 1.891 ± 0.015 | 0.404 ± 0.15 | 2 ± 0.03
AUCACA | 0.256 ± 0.074 | 2.004 ± 0.0041 | 0.0653 ± 0.038 | 2.02 ± 0.032
GUAACC | 0.499 ± 0.17 | 2.059 ± 0.0095 | 0.419 ± 0.081 | 2.053 ± 0.017
AUAAGU | 0.346 ± 0.17 | 1.88 ± 0.024 | 0.682 ± 0.15 | 2.01 ± 0.044
AUAAGC | 0.38 ± 0.1 | 2.003 ± 0.0058 | 0.792 ± 0.04 | 2.02 ± 0.042
AUAAGG | 0.0495 ± 0.016 | 1.882 ± 0.011 | 0.356 ± 0.25 | 1.99 ± 0.012
UUAAUG | 0.316 ± 0.0067 | 1.819 ± 0.0065 | 0.461 ± 0.14 | 1.97 ± 0.012
UUAAUA | 0.0221 ± 0.032 | 2.006 ± 0.0071 | 0.171 ± 1.6 | 2.02 ± 0.022
GUCAGG | 0.338 ± 0.065 | 1.938 ± 0.015 | 0.29 ± 0.076 | 1.974 ± 0.018
AUAGCG | 0.172 ± 0.0027 | 1.664 ± 0.015 | 0.461 ± 0.046 | 1.96 ± 0.045
AUAGCC | 0.385 ± 0.019 | 2.036 ± 0.0053 | 0.591 ± 0.43 | 2.03 ± 0.051
AUAGCA | 0.356 ± 0.058 | 1.9776 ± 0.00078 | 0.516 ± 0.016 | 2.03 ± 0.028
CUAUUU | 0.149 ± 0.064 | 1.984 ± 0.0088 | -0.0506 ± 0.019 | 1.984 ± 0.016
CUAUUG | 0.309 ± 0.21 | 2.023 ± 0.011 | 0.316 ± 0.2 | 2.01 ± 0.0053

Reference: the supplement of paper PMC6757056
